Literature values, collected in article PMC8538444.

Molecular target: SP-BN N-terminal saposin-like segment of the SP-B proprotein (Homo sapiens) (UniProt P07988)
Chain of UniProt P07988 (P07988 65-147): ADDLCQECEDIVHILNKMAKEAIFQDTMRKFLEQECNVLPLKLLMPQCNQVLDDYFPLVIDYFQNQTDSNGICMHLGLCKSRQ

In the case of SP-A (from UniProt Q8IWL2), the Kd is listed as 400 nM.
